{"source": "paper PMC4438997", "origin": "cited, not measured here", "target": "Ezrin FERM (Homo sapiens) (UniProt P15311)", "sequence (P15311 1-299)": "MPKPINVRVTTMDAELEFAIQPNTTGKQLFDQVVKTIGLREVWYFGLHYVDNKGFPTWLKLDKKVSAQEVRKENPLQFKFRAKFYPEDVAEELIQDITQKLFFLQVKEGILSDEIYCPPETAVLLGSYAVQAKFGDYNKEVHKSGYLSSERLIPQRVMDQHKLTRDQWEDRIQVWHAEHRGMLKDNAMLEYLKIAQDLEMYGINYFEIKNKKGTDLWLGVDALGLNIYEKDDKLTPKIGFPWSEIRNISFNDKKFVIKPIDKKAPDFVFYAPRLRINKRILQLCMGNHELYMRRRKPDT"}
{"substance": "NHERF1 C-terminal domain (from UniProt O14745)", "values": [{"measurement": "Kd", "result": 19, "unit": "nM"}]}
